Laboratory results taken from patent US20140120578.

Experiments:
Assay in all cases: cell_activity
[1] = test system: FucT1_T01 TALEN right monomer (synthetic); settings: yeast assay as pair, full target SEQ 66 (right half printed differently from Table 1), 37 C; 0.6 at 30 C
[2] = test system: XylT_T03 TALEN right monomer (synthetic)
[3] = test system: XylT_T04 TALEN right monomer (synthetic)
[4] = test system: FucT1_T02/FucT2_T02 TALEN right monomer (synthetic)
[5] = test system: FucT2_T01 TALEN right monomer (synthetic); settings: yeast assay as pair, full target SEQ 67, 37 C; 0.8 at 30 C
[6] = test system: XylT_T04 TALEN left monomer (synthetic)
[7] = test system: FucT1_T01 TALEN left monomer (synthetic); settings: yeast assay as pair, full target SEQ 66 (right half printed with CTAAGC there vs AATAAGC in Table 1), 37 C; 0.6 at 30 C
[8] = test system: FucT2_T01 TALEN left monomer (synthetic); settings: yeast assay as pair, full target SEQ 67, 37 C; 0.8 at 30 C
[9] = test system: FucT1_T02 TALEN left monomer (synthetic); settings: for activity: N. benthamiana protoplasts
[10] = test system: FucT2_T02 TALEN left monomer (synthetic); settings: for activity: N. benthamiana protoplasts
[11] = test system: XylT_T03 TALEN left monomer (synthetic)
[12] = test system: FucT_T04 TALEN left monomer (synthetic); settings: yeast assay as pair, targets SEQ 70 and 71 (same value), 37 C; 0.5 at 30 C
[13] = test system: FucT_T04 TALEN right monomer (synthetic); settings: yeast assay as pair, targets SEQ 70 and 71 (same value), 37 C; 0.5 at 30 C
[14] = N. benthamiana protoplasts, pair, XylT1 locus, XylT2 63.9%
[15] = yeast assay as pair, full target SEQ 65, 37 C, 0.9 at 30 C

Sequence: AATAAGCAATGGCGCAA (double strand) [FucT1_T01 right half-site (top strand as printed)]
- activity (relative to I-SceI) [1]: 0.8

Sequence: ATCACTCTCTATCTCTA (double strand) [XylT_T03 right half-site (top strand as printed)]
- activity ([2]; N. benthamiana protoplasts, pair, XylT1 locus, XylT2 28.2%): 34.4 % NHEJ
- activity (relative to I-SceI) ([2]; yeast assay as pair, full target SEQ 64, 37 C, 0.7 at 30 C): 0.9

Sequence: CTCTACTTCTCTTCCCA (double strand) [XylT_T04 right half-site (top strand as printed)]
- activity [3, 14]: 73.8 % NHEJ
- activity (relative to I-SceI) [3, 15]: 0.9

Sequence: CTCTGTTCGTTGCCCTA (double strand) [FucT_T02 right half-site (top strand as printed)]
- activity ([4]; N. benthamiana protoplasts, pair FucT1_T02 at FucT1, 24.7% at FucT2, with FucT2_T02 left monomer 46.5/45.0%): 39.2 % NHEJ
- activity (relative to I-SceI) ([4]; yeast assay as pair with FucT1 or FucT2 left monomer, targets SEQ 68 and 69, 37 C, 0.7 at 30 C): 0.9

Sequence: GATAAACAATGGCGCAA (double strand) [FucT2_T01 right half-site (top strand as printed)]
- activity (relative to I-SceI) [5]: 0.9

Sequence: TCTCTTCGCTCTCAACT (double strand) [XylT_T04 left half-site]
- activity [6, 14]: 73.8 % NHEJ
- activity (relative to I-SceI) [6, 15]: 0.9

Sequence: TGAGATCGGCGTCAAAT (double strand) [FucT1_T01 left half-site]
- activity (relative to I-SceI) [7]: 0.8

Sequence: TGAGATCGTCGTCAAAT (double strand) [FucT2_T01 left half-site]
- activity (relative to I-SceI) [8]: 0.9

Sequence: TTCAAACGCACCCAATA (double strand) [FucT1_T02 left half-site]
- activity ([9]; pair FucT1_T02, FucT1 locus, control 0.79%): 39.2 % NHEJ
- activity (relative to I-SceI) ([9]; yeast assay as pair, full target SEQ 68, 37 C, 0.7 at 30 C): 0.9
- activity ([10]; pair FucT2_T02, FucT1 locus (1-bp mismatch), control 0.79%): 46.5 % NHEJ

Sequence: TTCAAACGCACCCGATA (double strand) [FucT2_T02 left half-site]
- activity ([9]; pair FucT1_T02, FucT2 locus (1-bp mismatch), control 0.14%): 24.7 % NHEJ
- activity ([10]; pair FucT2_T02, FucT2 locus, control 0.14%): 45 % NHEJ
- activity (relative to I-SceI) ([10]; yeast assay as pair, full target SEQ 69, 37 C, 0.7 at 30 C): 0.9

Sequence: TTCTTGTTTCTCTCTTC (double strand) [XylT_T03 left half-site]
- activity ([11]; N. benthamiana protoplasts, pair, XylT1 locus, XylT2 28.2%, controls 0.36/0.06%): 34.4 % NHEJ
- activity (relative to I-SceI) ([11]; yeast beta-galactosidase assay as pair, full target SEQ 64, 37 C, 0.7 at 30 C): 0.9

Sequence: TTGCCTCTGTTCGTTGC (double strand) [FucT_T04 left half-site]
- activity (relative to I-SceI) [12]: 0.6

Sequence: TTTCTGGTTCGACTCGA (double strand) [FucT_T04 right half-site (top strand as printed)]
- activity (relative to I-SceI) [13]: 0.6
